Data as given in patent publication US20250122271A1, “ANTI-DKK1 ANTIBODY, PHARMACEUTICAL COMPOSITION THEREOF, AND USE THEREOF” (SHANGHAI JUNSHI BIOSCIENCES CO., LTD., priority 2022, published 2025).
Read-outs that look alike come from different tables or passages of the source. Blank lines part the entries; values can stand above or below the molecule they belong to.

Columns and labels:
A549 cells = assay: A549 subcutaneous transplantation tumor model in CB17/SCID female mice; assay type: in vivo
Description: The experimental animals were CB17/SCID female mice, and A549 cells (5× 10^6) were subcutaneously inoculated into the mice to establish a subcutaneous transplantation tumor model. […] The groups each had 6 animals, and the animals in all the groups were subjected to intraperitoneal injection. […] The efficacy was evaluated based on tumor growth inhibition (TGI) (FIG. 9).

[1] = test system: advanced gynecological cancers; conditions: patients with high expression of DKK1, stage 2 clinical; cited from earlier work
[2] = target: T1, human DKK1 antigen (Sino Biological, 10170-H08H) (human, UniProt O94907 32-266); assay: ELISA binding; given as IC50
T1 chain: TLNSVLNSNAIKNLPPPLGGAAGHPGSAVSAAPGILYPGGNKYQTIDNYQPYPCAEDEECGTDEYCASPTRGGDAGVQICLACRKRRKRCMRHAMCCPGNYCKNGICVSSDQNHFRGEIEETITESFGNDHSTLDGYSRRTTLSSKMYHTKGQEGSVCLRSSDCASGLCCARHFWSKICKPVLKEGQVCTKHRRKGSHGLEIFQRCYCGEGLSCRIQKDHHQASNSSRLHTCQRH

[3] = target: T2, human DKK1 antigen (Sino Biological, 10170-H08H) (human, UniProt O94907 32-266); assay: ELISA, coated human DKK1
T2 construct: also called huDKK1; hDKK1
T2 sequence (looked up): T1 chain
Description: Detection of the binding activity of the chimeric antibodies for human DKK1 by ELISA: After the plate was coated with 2.0 μg/mL human DKK1 antigen (Sino Biological, 10170-H08H) for 90 min and then blocked with 2% BSA for 90 min, the gradiently diluted anti-DKK1 chimeric antibodies and positive control antibody DKN-01 (starting at 1 μg/mL, diluted in a 2.5-fold gradient to 1.64 ng/ml, with a total of 8 concentrations) were added, and the mixture was incubated for 60 min. After the plate was washed, the 5000-fold diluted HRP-conjugated goat anti-human IgG (Fc specific) (Sigma, A0170) secondary antibody was added for incubation, and 0.1 mg/mL TMB (Sigma, T2885) was added for color development. Finally, the reaction was stopped with a 2 M hydrochloric acid solution. The plate was read at 450 nm/620 nm using a Thermo Scientific microplate reader, and the EC50 values of the chimeric antibodies (FIG. 3) were obtained by fitting using a four-parameter logistic regression (4PL) model.

[4] = target: T1, human DKK1 antigen (Sino Biological, …); assay: ELISA blocking of DKK1-LRP6
[5] = target: T1, human DKK1 antigen (Sino Biological, …); assay: ELISA blocking of DKK1-LRP6
[6] = target: T1, human DKK1 antigen (Sino Biological, …); assay: ELISA binding; given as IC50; FIG. 4A
[7] = target: T1, human DKK1 antigen (Sino Biological, …); assay: ELISA binding; FIG. 4B

Molecule: CC(=O)O[C@H]1C(=O)[C@@]2(C)[C@H]([C@H](OC(=O)c3ccccc3)[C@]3(O)C[C@H](OC(=O)[C@H](O)[C@@H](NC(=O)c4ccccc4)c4ccccc4)C(C)=C1C3(C)C)[C@]1(OC(C)=O)CO[C@@H]1C[C@@H]2O [paclitaxel, reference compound]
tumor growth inhibition (TGI) (A549 cells; day 35, paclitaxel 20 mg/kg intraperitoneal twice per week for 4 weeks): 60.48%

Molecule: DKN-01: positive control anti-DKK1 monoclonal antibody; heavy and light chains SEQ ID NO: 108 and SEQ ID NO: 109
disease control rate [1]: 57%
objective remission rate [1]: 14%
tumor growth inhibition (TGI) (A549 cells; day 35 after tumor inoculation, 5 mg/kg intraperitoneal once per week for 4 weeks): 23.27%

Now from value to molecule:

EC50 [2]: 0.0238 µg/mL
binding result [3]: binds
IC50 [4]: 0.355 µg/mL
B1: chimeric antibody chi-1 (antibody, human IgG4 S228P, kappa, V domains shown)
VH: EVQLQQSGPELVKPGASVRISCKTSGYTFTEYTMHWVKQSHGKSLEWIGVIDPSNGDTSYNQKFKGRATLTVDKSSSTAYMDLRSLTSEDSALYYCSSTTGPWFACWGQGTLVTVSA
VL: DIQMTQTTSSLSASLGDRVTINCRASQDISNYLNWYQQKPDGTVKLLIYYKSRLHSGVPTRFSGSGSGTDFSLTISNLVQEDIATYFCQQVHTLPPTFGGGTKLEIKR
notes: hIgG4 heavy constant region and human kappa constant region; also called No. 1 chimeric antibody molecule

IC50 [5]: 1.24 µg/mL
EC50 [6]: 0.0148 µg/mL
EC50 [7]: 0.0154 µg/mL
IC50 [4]: 0.324 µg/mL
B2: DKN-01 (antibody, V domains shown)
VH: EVQLVESGGGLVQPGGSLRLSCAASGFTFSSYTMSWVRQAPGKGLEWVATISGGGFGTYYPDSVKGRFTISRDNAKNSLYLQMNSLRAEDTAVYYCARPGYNNYYFDIWGQGTTVTVSS
VL: EIVLTQSPATLSLSPGERATLSCHASDSISNSLHWYQQKPGQAPRLLIYYARQSIQGIPARFSGSGSGTDFTLTISSLEPEDFAVYYCQQSESWPLHFGGGTKVEIKR
